Data from the DeepSol protein solubility set.

Test: soluble on expression in E. coli; label from the status in PepcDB or PDB records

| Sequence | soluble on expression in E. coli |
| --- | --- |
| MGSDKIHHHHHHGSSESAEYQQTNHYNTPKGFMNDIQTIFKGSDGYYHMYYLLNSNYKLANDGTEWYHVRTKDWEHFENLGVAIPKFVNGWSAVATGSIFQNSNQFFKDLPTSAIVAYFTSYTDTGQHQYVAYSLDNGSSYQPYNNGKPVMISQTKEQNARDPYIWYDSNSKRLMMYLAEGDKIGIYASSDGKNWAYQGATVLNQYTLGGKDLGLVECPNLKTFYDSATNTTKHVLFFGANGYQYGSTTGTYYMIGHLDTQGNFVPEQNAERLDQGSDYYGANFYQESDCVVKSIAWMGNWDYLQGQILDDQGQESKHLGSVSSARDITMVKRDDKYVLESYLKNNNSRTNTVSYQSNADTAKLADDGYHKTLLSVSRWHSQELSLKFQANAATLNGHIRLIFKQADAQVSLDYNTDNGYYEVKRTSSKIIGSQKVNYERSYVVDSHWNGQKELNIYLVADKSSLEFALPNGQTYSMVKLSTASDMDIVIETSGSNRLQADLANLET | not soluble |
| MAHHHHHHMTNKSYPTSLVTTPKVRRKSSEHGTFHNSSPKKKNRDIRDFFTANKCNESVEKSWNNNINKRSYHDSPMNDSPNTTLKFLSKKYKTEIN | soluble |
| MGSDKIHHHHHHMLNQQWLTTFIKLVELGHFTHTAEQLFMTQSGVSQQIKKLEQQAGAPLLNRIGKGFELTQAGMALLAHAQALVQQQAELLASFHQDNAYSGECKLACSGSLAMLIYPKLIDRQLQYPELKMSLEAAPNQRIIDRVLDNSIDVGIITQEFAHPELSLRLLGSQRLCLVLPNVWEGRLPRLIEYNFLTELGMIDHPDGMHYWQHFVECHFPQHLPQASKIKRLSYVNQLSQILLPVAKGLGFAVLPEFAIKQVSARDGVLEGLFRVPDASLSAHVASESLYLIQKRHRPLALRYQEIITLIKGLIS | not soluble |
| MGSDKIHHHHHHMTEKIRVAVVGAAGAFGMKHLDGLMNIPDVEVTVVSGTRLEPTQAVAEKYGVENAVVGLDAVLERDDVDAVILATPTGLHASQTQAVLAAGKHVQVEIPLADSIVDAEAALEAAESSNRVAMVGHTRRFNPSHQLVHNRIASGEFHVQQMDVQTYFFRRTNTNAKGEARSWTDHLLWHHAAHTVDLFAYQAGKIVHANAIQGPIHPELGIAMDMSIQLKSESGAICTLSLSFNNNGPFGTFFRYIGDTETYIARYDDLYNGREEPIDVSHVAVSMNGIELQDREFISAIREGREPNSSLRHVIDCYRVLGSLEKQLS | not soluble |
| MTENERAHADHASASPQRTRRRRGKPRRRMDSGASTQGGGASKSAAPSSSTSGSRGERGSRGDDKDKQNKHTRRKRRPAHRSTQRGSHGGDSSNSGSGIKRRRHTGNKNRGNQSRRQNNRSSRITTRDETSAGGLVISGLAEAVDENNNVDLSRIYVALIGRL | not soluble |
| MDTDIRDFIIEDDLFDPFMDENEDDDRAEIDEEPETPLIGEPLDEWKKPVEDWRPAQVRIKDLFEEMPGQKRMMLKIIDYCREERTGEEMDVFTNDLKQYCYSVYSPVVFRELLEEAGAIEYIKPDEPEGSQDAAQSEERAQAGGELPEEAVSPHRGDVYGTLPVDDESTLVPIDGADIVHESYIEGDEEIQMDFLEITPCEPGTWKATEAGLEAVDSMDDLDGTKELLGKEPKYLDIYHQILDYCQDEYGRSSKEIDKLVNDSPLLEEPRRYSGYFVSRLEKQGALEWRNGWFVTEVGKKIIEEAAAHV | not soluble |
| MGSDKIHHHHHHMNITSKLNQIIQECLVNRDSDLFIMPRFDKYQLLYRDAGGYRKSALIDRDEAEQIMMYIKYRADMGISERRRPQSGAMTWLNRQGELVNLRISTVGDFLDRPSMVIRFIYVLKQDEHILDSESMEKIQLATKLRGLMVFSGPMGSGKTTLIYEVARKLSETKMVMSIEDPVEIREHNFLQLQVNEKSGMSYQELLKNGLRNRPDVFIIGEIRDGKTAEIAIQAALSGHLVLTTVHSKSTQGVWNRIVELGVREEHLKEALTAVIYQRMIPAKVGDLKIMAEIKSFHPALKGTKKKWRERLEEWKESGQITKEVFEDFQYG | not soluble |
| MALFFRTRDRPLRPGDPYPLGSNWIEDDDGVNFSLFSENAEKVELLLYSLTNQKYPKEIIEVKNKTGDIWHVFVPGLRPGQLYAYRVYGPYKPELGLRFNPNKVLIDPYAKAINGSVIWNDAVFGYKIGDQNQDLTYDERDSGEYVPKSVVINPYFEWDDEDFIKGKKVPLKDTVIYEVHVKGFTKLRLDLPENIRGTYEGLASEQMISYLKDLGITTVELMPVFHFIDQRFLTDKGLTNYWGYDPINFFSPECRYSSTGCLGGQVLSFKKMVNELHNAGIEVIIDVVYNHTAEGNHLGPTLSFRGIDNTAYYMLQPDNKRYYLDFTGTGNTLNLSHPRVIQMVLDSLRYWVTEMHVDGFRFDLAAALARELYSVNMLNTFFIALQQDPILSQVKLIAEPWDVGQGGYQVGNFPYQWAEWNGKYRDSIRRFWRGEALPYSEIANRLLGSPDIYLGNNKTPFASINYVTSHDGFTLEDLVSYNQKHNEANGFNNQDGMNENYSWNCGAEGPTNDQNVVICREKQKRNFMITLLVSQGTPMILGGDELSRTQRGNNNAFCQDNEITWFDWNLDERKSKFLEFVKKMIQFYRAHPAFRRERYFQGKKLFGMPLKDVTFYTLEGREVDEKTWSSPTQLVIFVLEGSVMDEINMYGERIADDSFLIILNANPNNVKVKFPKGKWELVISSYLREIKPEERIIEGEKELEIEGRTALVYRRIEL | soluble |
| MSLSYKKIAIITGANSGFGKEFLKLLINEEEITEIWAVARNKARLNQLVDEFGSKVKIFSKDLSKIEEVKEIGTFLSKENVCIKYLINNAGFAKFCSYNDLSIDESINMIDLNISAVVALGLICIPYMQKGSHIMNISSQASFQPLPYQNIYSSTKAFIRNYTRALNVELKSKGINAIAVCPGWMSTNLFKRGIVVAEKGTKNFPGIVSPDVVAKKALKDAKKNKDISVYGINTKSSHLLAKLLPQKMMMKVWLMQQHIKEGHHHHHH | soluble |
| MGSDKIHHHHHHCELDRDPEGKDFQQPYTSFVQTKQNRDGLYALLRNTENPRMHFYQELQSDMYCTTITDGNSLAPFVNWDLGILNDHGRADEDEVSGIAGYYFVYNRLNQQANAFVNNTEAALQNQVYKNSTEIANAKSFLAEGKVLQALAIWRLMDRFSFHESVTEVNSGAKDLGVILLKEYNPGYIGPRATKAQCYDYILSRLSEAIEVLPENRESVLYVSRDYAYALRARIYLALGEYGKAAADAKMVVDKYPLIGAADASEFENIYRSDANNPEIIFRGFASATLGSFTATTLNGAAPAGKDIKYNPSAVPFQWVVDLYENEDFRKSVYIAKVVKKDKGYLVNKFLEDKAYRDVQDKPNLKVGARYFSVAEVYLILVESALQTGDTPTAEKYLKALSKARGAEVSVVNMEALQAERTRELIGEGSRLRDMVRWSIPNNHDAFETQPGLEGFANTTPLKAQAPVGFYAYTWEFPQRDRQTNPQLIKNWPI | not soluble |
| SMGGPQYGIAREDVVLNRILGEGFFGEVYEGVYTNHKGEKINVAVKTCKKDCTLDNKEKFMSEAVIMKNLDHPHIVKLIGIIEEEPTWIIMELYPYGELGHYLERNKNSLKVLTLVLYSLQICKAMAYLESINCVHRDIAVRNILVASPECVKLGDFGLSRYIEDEDYYKASVTRLPIKWMSPESINFRRFTTASDVWMFAVCMWEILSFGKQPFFWLENKDVIGVLEKGDRLPKPDLCPPVLYTLMTRCWDYDPSDRPRFTELVCSLSDVYQMEKDIAME | soluble |
| GPGSMGTMKDKNKCTFRYFEVLPIDHEPEYQNGYVCDICFMEYSEGPFFHCSKSGKDVCLRCGGKMGLTPFTALVSKVMRPTVYWSESESSRAIALCYQIHRDILGCHFIDGANLLISTRDDLPSYFIDSNSCIEKSIVLSRSDIERRFPWAGEVAEVMGVNAVSFHETSACNDQSRLCFLSSFRVEGAFIEFRFSDGFCELVHCENGTIVAIRDSAVLSCFLMGLPVRWGRSLPKAASSVLEWYLKGGQR | not soluble |
| MDYDVIANQPVVIDNGSGVIKAGFAGEQQPKVRFANFVGRPKYHRVMAGGLDGDIFIGPKAESNRGLFSIEYPMEHGIVNNWSDMEKIWEYIFGQDQLKIFPEEHPVLLTDAPLNPLKNRERSAEIFFETFNVPALYIQMQAVLSLYATGRTTGVVLDSGDGVTHAVPIVKGFAMKHAIQRMDLAGRDVTEYLRVLLRREGYEFHRSNEFEIVREMKENACYLALDPTKVENNSVKSSYALPDTTKIEISNSLFRAPEVLFKPDLIGTEWPGMAHVVNQSIMKCDVDLRQTLYSNIVLSGGTTLFKGFGDRLLGEMRKIAPADGKIRISASQERNSLTWIGGSIVASLDTFRKMWLGKKEYEDMGASAMHKRFF | not soluble |
| MMDASKELQVLHIDFLNQDNAVSHHTWEFQTSSPVFRRGQVFHLRLVLNQPLQSYHQLKLEFSTGPNPSIAKHTLVVLDPRTPSDHYNWQATLQNESGKEVTVAVTSSPNAILGKYQLNVKTGNHILKSEENILYLLFNPWCKEDMVFMPDEDERKEYILNDTGCHYVGAARSIKCKPWNFGQFEKNVLDCCISLLTESSLKPTDRRDPVLVCRAMCAMMSFEKGQGVLIGNWTGDYEGGTAPYKWTGSAPILQQYYNTKQAVCFGQCWVFAGILTTVLRALGIPARSVTGFDSAHDTERNLTVDTYVNENGEKITSMTHDSVWNFHVWTDAWMKRPDLPKGYDGWQAVDATSQERSQGVFCCGPSPLTAIRKGDIFIVYDTRFVFSEVNGDRLIWLVKMVNGQEELHVISMETTSIGKNISTKAVGQDRRRDITYEYKYPEGSSEERQVMDHAFLLLSSEREHRRPVKENFLHMSVQSDDVLLGNSVNFTVILKRKTAALQNVNILGSFELQLYTGKKMAKLCDLNKTSQIQGQVSEVTLTLDSKTYINSLAILDDEPVIRGFIIAEIVESKEIMASEVFTSFQYPEFSIELPNTGRIGQLLVCNCIFKNTLAIPLTDVKFSLESLGISSLQTSDHGTVQPGETIQSQIKCTPIKTGPKKFIVKLSSKQVKEINAQKIVLITK | soluble |
| MARKLIDISVPLQNDVPADPPGNHPTIQYIDHQQGLPRMLQFFPGLKAEDLPDGQGWAVEQVSLSTHNGTHLDAPWHFHPTMNRGERALTIDEVPLDWCLQPGVKLDFRHLPDGYVVTAKDVENELERIGHTLAPLEIVVVNTSAGAKFGRPDYVNSGCGVGYEATMYLLERGVRLTGTDAWSWDAPFVFTAQRYAETKDASLIWEGHKASRHIGYCHLEKLHNLELLPATGFMVSCFPVKIERASAGWTRAVAILNDAAALEHHHHHH | soluble |
| MKKMFLILASAVVSLTACSKDSGDDDSPPIEKQPFNAVIKDGFKDENGVDLLPPRNIGNIKVGDYIPYNVTITDEVAEQEGETYRVVASTYDEGTHQERSVSYDIYLADKEDPTKMVLLENPEQLTFNKRGTYSFFIYPKEAGTYNLRFLLEKSVNNQKIGTSAIPIVTFNAVRITAYSHGYFTGKWKWEWSDSFIPILEEHSVNRRKFFFKIDDGSTEKDKYLQPEKAGIFYFTEYNGDNRGPLSFTVGAEYEYYPEQERTRAIQYLIFLLLK | not soluble |
| MAKYHDIASPAYILEEDLLRRNLSLIASVADRTGVEIILAFKAYALWRTFPIIREYVPHSTASSVWEARLAFEEMGAPAHTFSPAYTPEEFPEILRYSSHVTFNSLSQYYLLSPMVKNVGVSLGLRINPEYSAVETALYNPCAPGSRFGVSASELGDTLPEGIEGLHFHTLCESTGYELEKTLKIIEDRFASVLEQA | not soluble |
| MNLGQTLVGIATWPARAGLAAADTGLNMAGAAVDMAKQALGDAGGASGSTSMANMLGIDDTIARANRLARLLDDDMPLGRAIAPNGPMDRMLRPGGVVDLLTQPGGLLDRLTAEGGAMQRALQPGGLADQLLAEDGLIERVLSEDGLADRLLAEGGLIDKITAKDGPLEQLADVADTLARLTPGMEALEPAIATLQDAVIALTMVVNPLSSIAERIPLPGRRPARRSSSRSVRSQRVVDSE | not soluble |
